Our source for the EC50 values is patent US20240059764A1 (STARMAB BIOLOGICS SUZHOU, published 2024).

Usually EC50 stands for the concentration needed to bring the measured effect to its halfway point. Low values mean higher potency in that assay, high ones lower potency in that assay.

First the molecules themselves.
B1: A3-Fc fusion proteins binding with antigen (Fc fusion)
chain: QVQLVESGGGLVQAGGSLTLSCVASGFTFSRHGMTWVRQAPGKELDYVGEINIPGDDVDYDISVKGRFTISRDNAKNTVYLHMTNLKVEDTATYWCAQAGENMRLVTRRQGTQVTVSTEPKSSDKTHTCPPCPAPELLGGPSVFLFPPKPKDTLYITREPEVTCVVVDVSHEDPEVKFNWYVDGVEVHNAKTKPREEQYNSTYRVVSVLTVLHQDWLNGKEYKCKVSNKALPAPIEKTISKAKGQPREPQVYTLPPSREEMTKNQVSLTCLVKGFYPSDIAVEWESNGQPENNYKTTPPVLDSDGSFFLYSKLTVDKSRWQQGNVFSCSVMHEALHNHYTQKSLSLSPGK
B2: F6-Fc fusion proteins binding with antigen (Fc fusion)
chain: QVQLVESGGGLAQPGGSLRLSCEASGSTLDSYTVAWFRQAPGKEREGVSCASRSGASTNYANSVKGRFTISRDNAKNTVYLQMNSLKPEDTGVYYCAAYRNFGNFCVMGRYEYDEWGQGTQVTVSSEPKSSDKTHTCPPCPAPELLGGPSVFLFPPKPKDTLYITREPEVTCVVVDVSHEDPEVKFNWYVDGVEVHNAKTKPREEQYNSTYRVVSVLTVLHQDWLNGKEYKCKVSNKALPAPIEKTISKAKGQPREPQVYTLPPSREEMTKNQVSLTCLVKGFYPSDIAVEWESNGQPENNYKTTPPVLDSDGSFFLYSKLTVDKSRWQQGNVFSCSVMHEALHNHYTQKSLSLSPGK
B3: huF6-Fc fusion proteins binding with antigen (Fc fusion)
chain: EVQLVESGGGLVQPGGSLRLSCAASGSTLDSYTVAWVRQAPGKGLEWVSCASRSGASTNYANSVKGRFTISRDNSKNTVYLQMNSLRAEDTAVYYCAAYRNFGNFCVMGRYEYDEWGQGTLVTVSSEPKSSDKTHTCPPCPAPELLGGPSVFLFPPKPKDTLYITREPEVTCVVVDVSHEDPEVKFNWYVDGVEVHNAKTKPREEQYNSTYRVVSVLTVLHQDWLNGKEYKCKVSNKALPAPIEKTISKAKGQPREPQVYTLPPSREEMTKNQVSLTCLVKGFYPSDIAVEWESNGQPENNYKTTPPVLDSDGSFFLYSKLTVDKSRWQQGNVFSCSVMHEALHNHYTQKSLSLSPGK
B4: G1-Fc fusion proteins binding with antigen (Fc fusion)
chain: QVQLVESGGDLVQPGGSLTLACEASGFTISSTGMTWVRQAPGKELDWVGDINIPGTDTDYDISVKGRFTISKDHAKNTVYLQMTSLRPEDTAIYYCAKQGANLRQGVQSPGTLVTVSSEPKSSDKTHTCPPCPAPELLGGPSVFLFPPKPKDTLYITREPEVTCVVVDVSHEDPEVKFNWYVDGVEVHNAKTKPREEQYNSTYRVVSVLTVLHQDWLNGKEYKCKVSNKALPAPIEKTISKAKGQPREPQVYTLPPSREEMTKNQVSLTCLVKGFYPSDIAVEWESNGQPENNYKTTPPVLDSDGSFFLYSKLTVDKSRWQQGNVFSCSVMHEALHNHYTQKSLSLSPGK
B5: huA3-Fc fusion proteins binding with antigen (Fc fusion)
chain: QVQLVESGGGLVQPGGSLRLSCAASGFTFSRHGMTWVRQAPGKGLEYVGEINIPGDDVDYDISVKGRFTISRDNAKNTLYLQMNSLRAEDTAVYYCARAGENMRLVTRGQGTLVTVSSEPKSSDKTHTCPPCPAPELLGGPSVFLFPPKPKDTLYITREPEVTCVVVDVSHEDPEVKFNWYVDGVEVHNAKTKPREEQYNSTYRVVSVLTVLHQDWLNGKEYKCKVSNKALPAPIEKTISKAKGQPREPQVYTLPPSREEMTKNQVSLTCLVKGFYPSDIAVEWESNGQPENNYKTTPPVLDSDGSFFLYSKLTVDKSRWQQGNVFSCSVMHEALHNHYTQKSLSLSPGK
B6: huG1-Fc fusion proteins binding with antigen (Fc fusion)
chain: QVQLVESGGGLVQPGGSLRLSCAASGFTISSTGMTWVRQAPGKGLEWVGDINIPGTDTDYDISVKGRFTISKDHAKNTVYLQMNSLRAEDTAVYYCAKQGANLRQGVQGQGTLVTVSSEPKSSDKTHTCPPCPAPELLGGPSVFLFPPKPKDTLYITREPEVTCVVVDVSHEDPEVKFNWYVDGVEVHNAKTKPREEQYNSTYRVVSVLTVLHQDWLNGKEYKCKVSNKALPAPIEKTISKAKGQPREPQVYTLPPSREEMTKNQVSLTCLVKGFYPSDIAVEWESNGQPENNYKTTPPVLDSDGSFFLYSKLTVDKSRWQQGNVFSCSVMHEALHNHYTQKSLSLSPGK

The target in this experiment is Staphylococcus aureus alpha toxin (Staphylococcus aureus, UniProt P09616).
Chain of Staphylococcus aureus alpha toxin (P09616 27-319 limits assumed): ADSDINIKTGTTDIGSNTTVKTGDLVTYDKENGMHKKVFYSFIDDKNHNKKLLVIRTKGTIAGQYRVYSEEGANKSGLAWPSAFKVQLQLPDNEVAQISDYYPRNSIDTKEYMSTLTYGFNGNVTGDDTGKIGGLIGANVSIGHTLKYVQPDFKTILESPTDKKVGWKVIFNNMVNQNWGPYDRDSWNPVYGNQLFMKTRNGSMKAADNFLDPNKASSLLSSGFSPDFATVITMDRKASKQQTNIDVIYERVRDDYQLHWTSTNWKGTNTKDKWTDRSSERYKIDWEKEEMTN
The molecule B1 had an EC50 of 9 ng/mL.

Molecule B2 registered an EC50 of 3 ng/mL.

For the molecule B3, a half-maximal response (EC50) required 2.72 ng/mL.

Molecule B4 registered an EC50 of 7 ng/mL.

B5 returned an EC50 of 5.97 ng/mL.

In turn, B6 registered an EC50 of 6.35 ng/mL.
